Results as given in FireProtDB (doi:10.1046/j.1432-1327.1999.00751.x).

Settings: Pseudomonas aeruginosa (strain ATCC 15692 / DSM 22644 / CIP 104116 / JCM 14847 / LMG 12228 / 1C / PRS 101 / PAO1); pH 7.2; 20 °C; GdnHCl; CD + Fluorescence; Tris-HCl 50 mM; reversible: yes; whole UniProt chain shown

B1: Azurin wild type, P00282 (protein)
chain: MLRKLAAVSLLSLLSAPLLAAECSVDIQGNDQMQFNTNAITVDKSCKQFTVNLSHPGNLPKNVMGHNWVLSTAADMQGVVTDGMASGLDKDYLKPDDSRVIAHTKLIGSGEKDSVTFDVSKLKEGEQYMFFCTFPGHSALMKGTLTLK
Q: What does the source list for B1?
A: denaturant m value: 3.3 kcal/mol/M; denaturant midpoint (higher = more stable): 2.78 M; unfolding free energy: 9.4 kcal/mol
